Measured values from patent publication US20200190209A1 (BLACK BELT THERAPEUTICS, published 2020).
“And” between values parts separate entries of the source, which are not always exact repeats. Identical values can stand only once. Like-named read-outs stand apart in the source and are kept apart here. One block for each binder: values may come before it.

Assays:
[1] = biological target: T1, Cynomolgus monkey CD38 (on T cells) (Cynomolgus monkey, UniProt Q5VAN0 1-301); test: flow cytometry titration on cynomolgus T cells, gated on CD4-positive and on CD8-positive cells
T1 construct: whole, on cells; also called cyno CD38
T1 sequence (Q5VAN0 whole entry): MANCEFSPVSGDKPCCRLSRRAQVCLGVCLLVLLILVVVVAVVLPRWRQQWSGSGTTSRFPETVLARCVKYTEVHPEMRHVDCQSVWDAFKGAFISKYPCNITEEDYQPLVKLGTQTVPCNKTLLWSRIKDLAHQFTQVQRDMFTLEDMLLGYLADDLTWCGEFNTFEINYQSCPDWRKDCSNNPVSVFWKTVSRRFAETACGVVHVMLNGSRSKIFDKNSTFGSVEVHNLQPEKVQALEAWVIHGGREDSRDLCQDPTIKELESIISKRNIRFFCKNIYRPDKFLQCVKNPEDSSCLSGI
Protocol: (§1) Unbound primary antibody was removed by washing followed by staining with a secondary antibody (5 μg/ml) 30 minutes on ice. All samples were stained in triplicates with appropriate CD3, CD4 and CD8 cross-reactive antibodies. Samples were measured by flow cytometry. For data analysis live cells were gated using FSC vs SSC parameters during sample acquisition. Mean fluorescence intensities (MFI) of stained cells were plotted on an XY chart, graphing MFI against the log of the concentration and the data fit to a non-linear regression curve from which the EC50 was calculated.

[2] = biological target: T2, recombinant human CD38 his tagged (extracellular domain) (human, UniProt P28907 43-300); test: SPR Biacore 2000; IgG1 captured, rhCD38-his as analyte
T2 construct: also called rhCD38; rhCD38-his; not shown: Histidine tag

[3] = biological target: T2, recombinant human CD38 his tagged …; test: Octet BLI, avidity; rhCD38-his on Ni-NTA sensor, IgG1 in solution
Protocol: Avidity binding measurements of anti-CD38 Antibodies: Ni-NTA sensors were equilibrated off-line in assay buffer for 30 minutes and then monitored on-line for 60 seconds for baseline establishment. […] Then the antibody was associated at different concentrations (as described in FIGS. 25 and 30) for 30-50 minutes. Afterwards they were transferred to assay buffer for 20-30 min for off-rate measurement. Kinetics data were fit using a 1:1 binding model in the data analysis software provided by ForteBio.

[4] = biological target: T3, human CD38 (full length, on cells) (human, UniProt P28907 1-300); test: cell-based or functional assay
[5] = biological target: T3, human CD38 (full length, on cells); test: flow cytometry titration on human cells, gated on CD8-positive cells
Protocol: as §1

[6] = biological target: T3, human CD38 (full length, on cells); test: flow cytometry titration on human cells, gated on CD4-positive cells
Protocol: as §1

[7] = biological target: T3, human CD38 (full length, on cells); test: cell-based or functional assay; remark: listed apart in the source
[8] = biological target: T2, recombinant human CD38 his tagged …; test: Octet BLI, affinity, monovalent human CD38-HIS; yeast produced
[9] = biological target: T2, recombinant human CD38 his tagged …; test: Octet BLI, affinity, monovalent human CD38-HIS; IgG1
[10] = biological target: T2, recombinant human CD38 his tagged …; test: summary, human CD38 extracellular protein
[11] = biological target: T2, recombinant human CD38 his tagged …; test: Octet BLI, affinity, monovalent human CD38-HIS; IgG4
[12] = biological target: T2, recombinant human CD38 his tagged …; test: SPR Biacore affinity, rhCD38-his
Protocol: (§2) Anti-human antibody was initially immobilised across all flow cells in analysis buffer (pH 7.4, 10mM HEPES, 150mM NaCl, 3mM EDTA, 0.05% Tween 20) to an RU of between 12,000-14,000 over 10 minutes. […] Dissociation was performed in analysis buffer over 10 minutes. Regeneration steps between sample concentrations were performed in 3M MgCl₂, three times for 0.5 minutes. A flow rate of 25 μl/min was maintained throughout the process. Kinetics data were fit using a global fit on the analysis software provided by Biacore with reference subtraction.

[13] = biological target: T3, human CD38 (full length, on cells); test: cell-based or functional assay; remark: listed apart in the source
[14] = biological target: T2, recombinant human CD38 his tagged …; test: Octet BLI affinity, rhCD38
[15] = biological target: T1, Cynomolgus monkey CD38 (on T cells); test: flow cytometry titration on cynomolgus T cells, gated on CD8-positive cells
[16] = biological target: T3, human CD38 (full length, on cells); test: flow cytometry titration on human PBMC, gated on CD8-positive cells
[17] = biological target: T3, human CD38 (full length, on cells); test: cell-based or functional assay; remark: listed apart in the source
[18] = biological target: T1, Cynomolgus monkey CD38 (on T cells); test: flow cytometry titration on cynomolgus T cells, gated on CD4-positive cells
[19] = biological target: T3, human CD38 (full length, on cells); test: flow cytometry, binding to Daudi cells
[20] = biological target: T3, human CD38 (full length, on cells); test: flow cytometry titration on human PBMC, gated on CD4-positive cells
[21] = biological target: T2, recombinant human CD38 his tagged …; test: Octet BLI affinity, rhCD38; remark: listed apart in the source
[22] = biological target: T3, human CD38 (full length, on cells); test: cell-based or functional assay; remark: listed apart in the source
[23] = biological target: T2, recombinant human CD38 his tagged …; test: SPR Biacore affinity, rhCD38-his; remark: listed apart in the source
Protocol: as §2

[24] = biological target: T3, human CD38 (full length, on cells); test: flow cytometry, binding to Daudi cells; remark: listed apart in the source

Kd [2]: 1.2 nM | Kd [3]: 0.0735 nM | CDC EC50, Daudi cells, 10% complement [4]: 0.19 µg/mL | CDC max. lysis, Daudi cells, 10% complement [4]: 16.9% | EC50 (read off the curve) [5]: ~0.2 µg/mL | EC50 (read off the curve) [6]: ~0.4 µg/mL | ADCC EC50, Daudi target cells [7]: 0.0013 µg/mL | ADCC max. lysis, Daudi target cells [7]: 43%
B1: aCD38-a-306 (human IgG1) (antibody, V domains shown)
VH: not shown
VL: DIQMTQSPSSLSASVGDRVTITCRASQSISSYLNWYQQKPGKAPKLLIYGASSLQSGVPSRFSGSGSGTDFTLTISSLQPEDFATYYCQQRSSTPITFGGGTKVEIK
notes: Human IgG1
binding result [1]: no binding (tested: about 20 µg/ml (log 1.3))

Kd [8]: 48 nM
B2: aCD38-a-306 (yeast produced) (antibody, V domains shown)
VH: not shown
VL: DIQMTQSPSSLSASVGDRVTITCRASQSISSYLNWYQQKPGKAPKLLIYGASSLQSGVPSRFSGSGSGTDFTLTISSLQPEDFATYYCQQRSSTPITFGGGTKVEIK

Kd [9]: 2.3 nM | Kd [2]: 1 nM | Kd [3]: 0.0181 nM | Kd [10]: ~1 nM | ADCC EC50, Daudi target cells [7]: 0.03 µg/mL | ADCC max. lysis, Daudi target cells [7]: 55%
B3: aCD38-a-327 (human IgG1) (antibody, V domains shown)
VH: QVQLQESGPGLVKPSQTLSLTCTVSGGSISSGGYYWSWIRQHPGKGLEWIGYIYYSGSTYYNPSLKSRVTISVDTSKNQFSLKLSSVTAADTAVYYCARAKSELVLPYYYYMDVWGKGTTVTVSS
VL: not shown
notes: Human IgG1

Kd [11]: 2.99 nM
B4: aCD38-a-327 (IgG4) (antibody, V domains shown)
VH: QVQLQESGPGLVKPSQTLSLTCTVSGGSISSGGYYWSWIRQHPGKGLEWIGYIYYSGSTYYNPSLKSRVTISVDTSKNQFSLKLSSVTAADTAVYYCARAKSELVLPYYYYMDVWGKGTTVTVSS
VL: not shown

Kd [12]: 2 nM | CDC EC50, Raji cells, 10% complement [13]: 0.3 µg/mL | CDC EC50, Raji cells, 10% complement (repeat) [13]: 0.17 µg/mL | Kd [14]: 5.79 nM | Kd [9]: 8.81 nM | Kd [2]: 2 nM | EC50 (read off the curve) [15]: ~0.8 µg/mL | EC50 (read off the curve) [16]: ~0.4 nM | ADCC target lysis EC50 [17]: 0.0059 µg/mL | ADCC target lysis, max. % lysis [17]: 44% | EC50 (read off the curve) [18]: ~0.7 µg/mL | EC50 [19]: 0.341 µg/mL | Max MFI [19]: 2320 MFI | Kd [3]: 0.177 nM | CDC EC50, Daudi cells, 10% complement [4]: 0.17 µg/mL and 0.34 µg/mL and 0.26 µg/mL | EC50 (read off the curve) [20]: ~0.4 nM | ADCC EC50, Daudi target cells [7]: 0.00032 µg/mL and 0.0008 µg/mL and 0.00042 µg/mL
B5: aCD38-b-348 (human IgG1) (antibody, V domains shown)
VH: QLQLQESGPGLVKPSETLSLTCTVSGGSISSSDYYWGWIRQPPGKGLEWIGSIYYSGSTYYNPSLKSRVTISVDTSKNQFSLKLSSVTAADTAVYYCARGQYSSGWYAYPFDMWGQGTMVTVSS
VL: EIVLTQSPGTLSLSPGERATLSCRASQSVRSSYLAWYQQKPGQAPRLLIYGASSRATGIPDRFSGSGSGTDFTLTISRLEPEDFAVYYCQQDGNVYTFGGGTKVEIK
notes: Human IgG1

Kd [11]: 9.24 nM
B6: aCD38-b-348 (IgG4) (antibody, V domains shown)
VH: QLQLQESGPGLVKPSETLSLTCTVSGGSISSSDYYWGWIRQPPGKGLEWIGSIYYSGSTYYNPSLKSRVTISVDTSKNQFSLKLSSVTAADTAVYYCARGQYSSGWYAYPFDMWGQGTMVTVSS
VL: EIVLTQSPGTLSLSPGERATLSCRASQSVRSSYLAWYQQKPGQAPRLLIYGASSRATGIPDRFSGSGSGTDFTLTISRLEPEDFAVYYCQQDGNVYTFGGGTKVEIK

Kd [12]: 63 nM | Kd [14]: 24.7 nM | ADCC target lysis EC50 [17]: 0.0028 µg/mL | ADCC target lysis, max. % lysis [17]: 38% | EC50 [19]: 0.485 µg/mL | Max MFI [19]: 1610 MFI
B7: aCD38-b-348-m1 (antibody, IgG1, V domains shown)
VH: QLQLQESGPGLVKPSETLSLTCTVSGGSISSSDYYWGWIRQPPGKGLEWIGSIYYSGSTYYNPSLKSRVTISVDTSKNQFSLKLSSVTAADTAVYYCARGQYSSGWYAYPFDMWGQGTMVTVSS
VL: EIVLTQSPGTLSLSPGERATLSCRASQSVRSSYLAWYQQKPGQAPRLLIYGASSRATGIPDRFSGSGSGTDFTLTISRLEPEDFAVYYCQQEANVYTFGGGTKVEIK
notes: also called aCD38-b-348-ml

Kd [12]: 28 nM | Kd [14]: 55.1 nM | ADCC target lysis EC50 [17]: 0.0043 µg/mL | ADCC target lysis, max. % lysis [17]: 39% | EC50 [19]: 0.558 µg/mL | Max MFI [19]: 2100 MFI
B8: aCD38-b-348-m3 (antibody, IgG1, V domains shown)
VH: QLQLQESGPGLVKPSETLSLTCTVSGGSISSSDYYWGWIRQPPGKGLEWIGSIYYSGSTYYNPSLKSRVTISVDTSKNQFSLKLSSVTAADTAVYYCARGQYSSGWYAYPFDMWGQGTMVTVSS
VL: EIVLTQSPGTLSLSPGERATLSCRASQSVRSSYLAWYQQKPGQAPRLLIYGASSRATGIPDRFSGSGSGTDFTLTISRLEPEDFAVYYCQQDANVYTFGGGTKVEIK

Kd [12]: 6.8 nM | Kd [14]: 39.9 nM | ADCC target lysis EC50 [17]: 0.0025 µg/mL | ADCC target lysis, max. % lysis [17]: 44% | EC50 [19]: 0.499 µg/mL | Max MFI [19]: 2220 MFI
B9: aCD38-b-348-m2 (antibody, IgG1, V domains shown)
VH: QLQLQESGPGLVKPSETLSLTCTVSGGSISSSDYYWGWIRQPPGKGLEWIGSIYYSGSTYYNPSLKSRVTISVDTSKNQFSLKLSSVTAADTAVYYCARGQYSSGWYAYPFDMWGQGTMVTVSS
VL: EIVLTQSPGTLSLSPGERATLSCRASQSVRSSYLAWYQQKPGQAPRLLIYGASSRATGIPDRFSGSGSGTDFTLTISRLEPEDFAVYYCQQDSNVYTFGGGTKVEIK

Kd [21]: 26 nM | ADCC target lysis EC50 [22]: 0.0035 µg/mL | ADCC target lysis, max. % lysis [22]: 43% | Kd [23]: 4.9 nM | EC50 [24]: 0.745 µg/mL | Max MFI [24]: 2210 MFI
B10: aCD38-b-329-m7 (antibody, IgG1, V domains shown)
VH: QLQLQESGPGLVKPSETLSLTCTVSGGSISSSDYYWGWIRQPPGKGLEWIGSIYYSGSTYYNPSLKSRVTISVDTSKNQFSLKLSSVTAADTAVYYCARGQYSSGWYAYPFDMWGQGTMVTVSS
VL: EIVLTQSPGTLSLSPGERATLSCRASQSVRSSYLAWYQQKPGQAPRLLIYGASSRATGIPDRFSGSGSGTDFTLTISRLEPEDFAVYYCQQDSAVFTFGGGTKVEIK

Kd [12]: 27 nM | Kd [14]: 70.1 nM | ADCC target lysis EC50 [17]: 0.0014 µg/mL | ADCC target lysis, max. % lysis [17]: 38% | EC50 [19]: 0.299 µg/mL | Max MFI [19]: 2020 MFI
B11: aCD38-b-348-m4 (antibody, IgG1, V domains shown)
VH: QLQLQESGPGLVKPSETLSLTCTVSGGSISSSDYYWGWIRQPPGKGLEWIGSIYYSGSTYYNPSLKSRVTISVDTSKNQFSLKLSSVTAADTAVYYCARGQYSSGWYAYPFDMWGQGTMVTVSS
VL: EIVLTQSPGTLSLSPGERATLSCRASQSVRSSYLAWYQQKPGQAPRLLIYGASSRATGIPDRFSGSGSGTDFTLTISRLEPEDFAVYYCQQEGNVYTFGGGTKVEIK

Kd [21]: 19.9 nM | ADCC target lysis EC50 [22]: 0.0024 µg/mL | ADCC target lysis, max. % lysis [22]: 47% | Kd [23]: 4.7 nM | EC50 [24]: 0.651 µg/mL | Max MFI [24]: 2300 MFI
B12: aCD38-b-329-m6 (antibody, IgG1, V domains shown)
VH: QLQLQESGPGLVKPSETLSLTCTVSGGSISSSDYYWGWIRQPPGKGLEWIGSIYYSGSTYYNPSLKSRVTISVDTSKNQFSLKLSSVTAADTAVYYCARGQYSSGWYAYPFDMWGQGTMVTVSS
VL: EIVLTQSPGTLSLSPGERATLSCRASQSVRSSYLAWYQQKPGQAPRLLIYGASSRATGIPDRFSGSGSGTDFTLTISRLEPEDFAVYYCQQDEAVFTFGGGTKVEIK
